Source: PMC5556678 (Structure (London, England : 1993), 2017)
Several values for one entry are separate records, joined by “and”; a condition that tells them apart may be missing. Equal entries are not always repeated.

Columns and labels:
BanLec Y46K = assay: native MS
BanLec [1] = molecular target: BanLec (UniProt Q8L5H4); assay: native MS
BanLec [2] = molecular target: BanLec (UniProt Q8L5H4); assay: SEC-MALS
BanLec [3] = molecular target: BanLec (UniProt Q8L5H4); assay: ion mobility MS
BanLec [4] = molecular target: BanLec (UniProt Q8L5H4); assay: SAXS
BanLec [5] = molecular target: BanLec (Musa acuminata, UniProt O22321); assay: HPLC depletion assay of released gp120; type: binding; details: 2-AB labelled gp120 N-glycans, 0-50 μM BanLec
BanLec D133G = assay: native MS
BanLec D38G = assay: native MS
BG505 SOSIP.664 = assay: Negative-stain electron microscopy of BanLec with soluble Env trimer mimic; parameters: species or system HIV; details: incubation of BanLec with BG505 SOSIP.664
HIV fusion to HeLa cells = details: ref Swanson et al., 2010; cited from earlier work

BanLec Y46K (natural protein)
stoichiometry N (BanLec Y46K): 2 and 4

BanLec (from UniProt Q8L5H4 1-141) (natural protein)
stoichiometry N (BanLec [1]): 4
stoichiometry N (BanLec [2]): 4
stoichiometry N (BanLec [3]): 4
stoichiometry N (BanLec [4]): 4

CC(=O)N[C@H]1[C@H](O[C@H]2[C@H](O)[C@@H](NC(C)=O)C(O)O[C@@H]2CO)O[C@H](CO)[C@@H](O[C@@H]2O[C@H](CO[C@H]3O[C@H](CO[C@H]4O[C@H](CO)[C@@H](O)[C@H](O)[C@@H]4O[C@H]4O[C@H](CO)[C@@H](O)[C@H](O)[C@@H]4O)[C@@H](O)[C@H](O[C@H]4O[C@H](CO)[C@@H](O)[C@H](O)[C@@H]4O[C@H]4O[C@H](CO)[C@@H](O)[C@H](O)[C@@H]4O)[C@@H]3O)[C@@H](O)[C@H](O[C@H]3O[C@H](CO)[C@@H](O)[C@H](O)[C@@H]3O[C@H]3O[C@H](CO)[C@@H](O)[C@H](O)[C@@H]3O[C@H]3O[C@H](CO)[C@@H](O)[C@H](O)[C@@H]3O)[C@@H]2O)[C@@H]1O (some centres unmarked) [Man9]
depletion of glycan upon addition of BanLec (BanLec [5]): decreased considerably

BanLec D133G (natural protein)
stoichiometry N (BanLec D133G): 4

BanLec D38G (natural protein)
stoichiometry N (BanLec D38G): 4

Man5
depletion of glycan upon addition of BanLec (BanLec [5]): not depleted

B1: BanLec: recombinant tetrameric plant (banana) lectin with anti-HIV activity, expressed in E. coli (protein)
chain: MNGAIKVGAWGGNGGSAFDMGPAYRIISVKIFSGDVVDAVDVTFTYYGKTETRHFGGSGGTPHEIVLQEGEYLVGMKGEFGNYHGVVVVGKLGFSTNKKSYGPFGNTGGTPFSLPIAAGKISGFFGRGGDFIDAIGVYLEP
modifications: left off: polyhistidine tag, N-terminal, cleaved
effect on soluble Env trimer mimic by negative-stain EM (BG505 SOSIP.664): aggregation
IC50, inhibition of HIV fusion to HeLa cells (HIV fusion to HeLa cells): low-nanomolar range
